Reference: patent US20220112288A1 (published 2022)

B1: 75110_14P08A (antibody, V domains shown)
VH: QVQLQESGPGLVKSSETLSLTCTDSGDSIRSYYWNWIRQPAGKGLEWIGRIYASGSTNYNPSLKSRVIMSADTSKNRFSLKLSSVTAADTAVYYCARDGGVGDSLDYWGQGTLVTVSS
VL: DIVMTQTPLSLPVTPGEPASISCRSSQSLLDSDDGNTYLDWYLQKPGQSPQLLIYTLSYRASGVPDRFSGSGSGTDFTLKISRVEAEDVGVYYCMQRIEFPFTFGPGTKVDIK
notes: Tested as clonal hybridoma supernatant from AlivaMab Mouse Kappa mice: human variable regions, human kappa, mouse Fc
B2: 75110_14G10A (antibody, V domains shown)
VH: EVQLVESGGGLVKPGGSLRLSCAASGFTFSSYSMNWVRQAPGKGLEWVSFISSSSSYIYYADSVKGRFTISRDNAKNSLYLQMNSLRAEDTAVYYCARERGDDYGDYEGAFDIWGQGTMVTVSS
VL: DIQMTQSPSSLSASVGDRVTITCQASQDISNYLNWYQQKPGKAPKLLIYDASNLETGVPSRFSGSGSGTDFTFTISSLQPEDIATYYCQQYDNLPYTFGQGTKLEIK
notes: as for B1
B3: 75110_13C13A (antibody, V domains shown)
VH: QVQLQQWGAGLLKPSETLSLTCAVSGGSFSGYYWSWIRQPPGKGLEWIGEINHSGSTNCNPSLKSRVTISVDTSKNQFSLKLSSVTAADTAMYYCARVLNFFDYWGQGTLVTVSS
VL: DIQMTQTPSSVSASVGDRVTITCRASPGISNWLAWYQQKPGKAPELLIYAASSLQSGVPSRFSGSGSGTDFTLTISSLQPEDFATYFCQQANSFPLTFGGGTKVESK
notes: Tested as non-clonal AlivaMab Mouse Kappa hybridoma supernatant, captured by anti-mouse IgG Fc sensor
B4: 75110_12K21A (antibody, V domains shown)
VH: QVQLQQWGAGLLKPSETLSLTCAVSGGSFSGYYWSWIRQPPGKGLEWIGEINHSGSTNCNPSLKSRVTISVDTSNNQFSLKLSSVTAADTAVYYCARVLNYFDYWGQGTLVTVSS
VL: DIQMTQSPSSVSASVGDRVTITCRASPDIANWLAWYQQKPGKAPELLIYAASSLQSGVPSRFSGSGSGTDFTLTISSLQPEDFATYFCQQANSFPLTFGGGTKVESK
notes: as for B1
B5: 75110_13P21A (antibody, V domains shown)
VH: QVQLQQWGAGLLKPSETLSLTCAVSGGSFSGYYWSWIRQPPGKGLEWIGEINHSGSTNCNPSLKSRVTISVDTSNNQFSLKLSSVTAADTAVYYCARVLNYFDYWGQGTLVTVSS
VL: DIQMTQSPSSVSASVGDRVTITCRASPDIANWLAWYQQKPGKAPELLIYAASSLQSGVPSRFSGSGSGTDFTLTISSLQPEDFATYFCQQANSFPLTFGGGTKVESK
notes: as for B3
B6: 75110_13P22A (antibody, V domains shown)
VH: QVQLQQWGAGLLKPSETLSLTCAAYGGSFSGYYWSWIRQSPGKGLEWIGEINQSGNTNYNPSLKSRVTISADTSKNQFSLKLSSVTAADTAVYYCARVLNWFDYWGQGILVTVSS
VL: DIQMTQSPSSVSASVGDRVTITCRASQGISDWLAWYQQKSGKAPDLLIFAASSLQSGVPSRFSGSGSGTDFTLTISSLQPEDFATYYCQQANSFPYTFGQGTKLEIK
notes: as for B1
B7: 75110_13P22A (antibody, V domains shown)
VH: QVQLQQWGAGLLKPSETLSLTCAAYGGSFSGYYWSWIRQSPGKGLEWIGEINQSGNTNYNPSLKSRVTISADTSKNQFSLKLSSVTAADTAVYYCARVLNWFDYWGQGILVTVSS
VL: DIQMTQSPSSVSASVGDRVTITCRASQGISDWLAWYQQKSGKAPDLLIFAASSLQSGVPSRFSGSGSGTDFTLTISSLQPEDFATYYCQQANSFPYTFGQGTKLEIK
notes: as for B3
B8: 75110_13P21A (antibody, V domains shown)
VH: QVQLQQWGAGLLKPSETLSLTCAVSGGSFSGYYWSWIRQPPGKGLEWIGEINHSGSTNCNPSLKSRVTISVDTSNNQFSLKLSSVTAADTAVYYCARVLNYFDYWGQGTLVTVSS
VL: DIQMTQSPSSVSASVGDRVTITCRASPDIANWLAWYQQKPGKAPELLIYAASSLQSGVPSRFSGSGSGTDFTLTISSLQPEDFATYFCQQANSFPLTFGGGTKVESK
notes: as for B1
B9: 75110_13C13A (antibody, V domains shown)
VH: QVQLQQWGAGLLKPSETLSLTCAVSGGSFSGYYWSWIRQPPGKGLEWIGEINHSGSTNCNPSLKSRVTISVDTSKNQFSLKLSSVTAADTAMYYCARVLNFFDYWGQGTLVTVSS
VL: DIQMTQTPSSVSASVGDRVTITCRASPGISNWLAWYQQKPGKAPELLIYAASSLQSGVPSRFSGSGSGTDFTLTISSLQPEDFATYFCQQANSFPLTFGGGTKVESK
notes: as for B1
B10: 75110_11D03A (antibody, V domains shown)
VH: EVQLVESGGGLVQPGGSLRLSCAASGFTFSSYWMSWVRQAPGKGLEWVANINQDGNEKYYVDSVKGRFTISRDNAKNSLFLQMNSLRAEDTAVYYCAREGGQWLALDYWGQGALVTVSS
VL: DIQMTQSPSSVSASVGDRVTITCRASQGISSWLAWYQQKPGKAPKFLISGASSLQSGVPSRFSGSGSGTDFTLTISSLQPEDFATYYCQQANSFPWTFGQGTKVEIK
notes: as for B1
B11: 75110_12H19A (antibody, V domains shown)
VH: EVQLVESGGGLVQPGGSLRLSCAASGFTFSSYWMSWVRQAPGQGLEWVANINEDGNEKYHVDSVKGRLTISRDNAKNSLYLQMNSLRGVDTAVYFCAREGGQWLALDYWGQGALVTVSS
VL: DIQMTQSPSSVSASVGDRVSITCRASQGISSWLAWYQQKPGKAPKLLIYGASGLQSGVPSRFSGSGSGTDFTLTISSLQPEDFATYYCQQANSFPWTFGQGTKVEIK
notes: as for B1
B12: 75110_12C19A (antibody, V domains shown)
VH: EVQLVESGGGLVQPGGSLRLSCAASGFTFSSYWMSWVRQAPGKGLEWVANIKEDGSDKYYVDSVKGRFTISRDNAKNSLYLQMNSLRAEDTAVHYCVREGGQWLALDYWGQGTLVTVSS
VL: DIQMTQSPSSVSGSVGDRVTITCRASQGISSWLAWYQQKPGKAPKLLIYGASSLQSGVPSRFSGSGSGTDFTLTISSLQPEDFVTYYCQQANSFPWTFGQGTKVEIK
notes: as for B1
B13: 75110_12H17A (antibody, V domains shown)
VH: EVQLVESGGGLVQPGGSLRLSCAASGFTFSDYWMSWVRQAPGKGLEWVANIKEDGNEKYYVDSVKGRFTISRDNAKNSLFLQMNSLRAEDTAVYYCAREGGQWLALDYWGQGALVTVSS
VL: DIQMTQSPSSVSASVGDRVTITCRASQGISSWLAWYQQKPGKAPKFLISGASSLQSGVPSRFTGSGSGTDFTLTISSLQPEDFATYYCQQANSFPWTFGQGTKVEIK
notes: as for B1
B14: 75110_14H13A (antibody, V domains shown)
VH: EVQLVESGGGLVQPGGSLRLSCAASGFTFSNYDMHWVRQATGKGLEWVSTIGTAGDTYYPGSVKGRFTISRKNAKNSLYLQMISLRAGDTAVYYCARGGDYYYGMDVWGQGTTVTVSS
VL: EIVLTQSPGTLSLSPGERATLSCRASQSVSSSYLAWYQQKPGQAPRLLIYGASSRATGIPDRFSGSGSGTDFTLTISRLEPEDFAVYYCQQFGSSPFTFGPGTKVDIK
notes: as for B1
B15: 75110_10O16A (antibody, V domains shown)
VH: EVQLVESGGGLVQPGGSLRLSCAASGFTFSNSDMHWVRQATGKGLEWVSTIGTAGDTYYPGSVKGRFTISRENAKNSLYLQMNSLRAGDTAVYYCARGGLYYYGMDVWGQGTTVTVSS
VL: ENVLTQSPGTLSLSPGERATLSCRASQSVSSSYLAWYQQKPGQAPRLLIYGASSRATGIPDRFSGSGSGTDFTLTISRLEPEDFAVYYCHQFGSSPFTFGPGTKVDIK
notes: Tested as clonal hybridoma supernatant from AlivaMab Mouse Kappa mice: human variable regions, human kappa, mouse Fc (detected with anti-mouse Fc gamma); also called 75110_10016A
B16: 75110_13C07A (antibody, V domains shown)
VH: EVQLVESGGVLVQPGGSLRLSCAASGFTFSNYDMHWVRQATGKGLEWVSTIGTAGDTYYPGSVKGRFTLSRENAKNSLYLQMHSLRAGDTAVYYCARGAYGYYGMDVWGQGTTVTVSS
VL: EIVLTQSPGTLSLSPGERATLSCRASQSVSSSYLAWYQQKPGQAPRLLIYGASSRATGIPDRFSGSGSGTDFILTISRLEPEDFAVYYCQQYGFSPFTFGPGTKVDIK
notes: as for B1
B17: 75110_14I16A (antibody, V domains shown)
VH: QVQLQESGPGLVKPSETLSLTCTVSNGSISSYYWSWIRQSAGKGLEWIGRIYTSGSTNYNPSLKSRVTMLVDTSKNQFSLKLSSVTAADTAVYYCARDREDYYYYGMDVWGQGTTVTVSS
VL: DIQMTQSPSSLSASVGDRVTITCQASHDISNYLNWYQQKPGKAPKLLLYYASNLETGVPSRFSGSGSGTDFTFTITSLQPEDIGTYSCQQYDNLPLTFGGGTKVEIK
notes: Tested as clonal hybridoma supernatant from AlivaMab Mouse Kappa mice: human variable regions, human kappa, mouse Fc; also called 75110_14116A
B18: 75110_14N19A (antibody, V domains shown)
VH: QVQLQESGPGLVKPSETLSLTCTVSGGSISRYYWSWIRQPAGKGLEWIGRICTSENPNYNPALKSRVTMSVDTSKNQFSLKLSSVTAADTAVYYCARELERLNYYGMDVWGQGTTVTVSS
VL: DIQMTQFPSSLSASVGDRVTITCQASQDISNYLNWYQQKPGKAPKLLIYDASNLESGVPSRFSGRGSGTDFTFTISSLQPEDFATFYCQQYDTLPITFGQGTRLEIK
notes: as for B1
B19: 75110_01L08A (antibody, V domains shown)
VH: QVQLQESGPGLVKPSETLSLTCTVSGGSISHYYWSWIRQPPGKGLEWIGYIHYSGTTNYNPSLKSRVTISVDTSKNQLSLKLRSVTAADTAVYYCARDQGFSSGGMDVWGQGTTVTVSS
VL: not shown
notes: Non-clonal AlivaMab Mouse Kappa hybridoma supernatant, captured by anti-mouse IgG Fc (human V regions, mouse Fc)

What was measured:
human CD4 on human PBMCs = molecular target: T1, human CD4 on human PBMCs (human, UniProt P01730 26-458); assay: FACS, clonal hybridoma supernatant on human PBMCs
T1 construct: whole, on cells; the CD4-positive gate was set with the control antibodies OKT4 and RPA-T4; also called hCD4

[1] = molecular target: T2, Recombinant human CD4 (R&D Systems, Cat. 10327-CD) (human, UniProt P01730 26-390, limits assumed); assay: BLI Octet, non-clonal supernatant on AMC sensor, 100 nM human CD4;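 note: hybridoma supernatants diluted 1:3, antibodies captured on AMC biosensors, association and dissociation with CD4 followed, curves smoothed and fit locally with 1:1 binding model for single-point kinetics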
T2 construct: Bought reagent; also called huCD4

[2] = molecular target: T2, Recombinant human CD4 (R&D Systems, …); assay: BLI Octet, non-clonal supernatant on AMC sensor, 100 nM human CD4, 1:1 local fit;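 note: Single-concentration kinetics per supernatant, with the 1:1 model fitted across both the association and dissociation phases of the sensorgram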
[3] = molecular target: T3, Recombinant human CD4 (R&D Systems, Cat. 10327-CD) (human, UniProt P01730 26-390, limits assumed); assay: BLI (Octet Red384), non-clonal supernatant on AMC sensor, 100 nM human CD4
T3 construct: Bought soluble recombinant protein used as analyte at 100 nM; also called huCD4

[4] = molecular target: T3, Recombinant human CD4 (R&D Systems, …); assay: BLI (Octet Red384), non-clonal supernatant on AMC sensor, 100 nM human CD4, 1:1 local fit;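 note: hybridoma antibodies captured from supernatant, single CD4 concentration as analyte, association and dissociation phases fitted together, giving single-point kinetic estimates per supernatant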

| Binder | % CD4 Stain (human CD4 on human PBMCs) | gMFI of CD4+ (human CD4 on human PBMCs) | further results |
| --- | --- | --- | --- |
| B1 | 28.3% | 58500 gMFI |  |
| B2 | 31.1% | 241000 gMFI |  |
| B3 |  |  | Response [1]: 0.19; Kd [2]: 3.2 nM; koff [2]: 0.00051 s⁻¹; kon [2]: 160000 M⁻¹ s⁻¹ |
| B4 | 37.2% | 147000 gMFI |  |
| B5 |  |  | Response [1]: 0.12; Kd [2]: 2.04 nM; koff [2]: 0.000315 s⁻¹; kon [2]: 154000 M⁻¹ s⁻¹ |
| B6 | 37.5% | 185000 gMFI |  |
| B7 |  |  | Response [1]: 0.24; Kd [2]: 0.68 nM; koff [2]: 0.00013 s⁻¹; kon [2]: 190000 M⁻¹ s⁻¹ |
| B8 | 27.2% | 31800 gMFI |  |
| B9 | 28.6% | 123000 gMFI |  |
| B10 | 30.1% | 217000 gMFI |  |
| B11 | 36.8% | 284000 gMFI |  |
| B12 | 24.4% | 56500 gMFI |  |
| B13 | 37.3% | 197000 gMFI |  |
| B14 | 35.3% | 160000 gMFI |  |
| B15 | 37.2% | 133000 gMFI |  |
| B16 | 37.5% | 56000 gMFI |  |
| B17 | 33.2% | 298000 gMFI |  |
| B18 | 32.5% | 265000 gMFI |  |
| B19 |  |  | Response [3]: 0.09; Kd [4]: 4.1 nM; koff [4]: 0.00037 s⁻¹; kon [4]: 91000 M⁻¹ s⁻¹ |
